Results: US20170037084A1 (UNIVERSITY OF ROCHESTER, published 2017)
Bridges are numbered along the chain shown (N, C = ends). Where no end group is shown, it is not given here. [ ]: non-standard residue; d: D form. The star is where a group is joined. SP8 = 3-amino-N-(3-(aminooxy)propyl)-4-(mercaptomethyl)benzamide, macrocycle-forming linker reagent; mAcF = meta-acetyl-L-phenylalanine, its ketone forms an oxime with the linker; pAcF = para-acetyl-L-phenylalanine, its ketone forms an oxime with the linker; FITC = O=C1OC2(c3ccc(O)cc3Oc3cc(O)ccc32)c2ccc(NC(=S)*)cc21; Trp(6-Cl) = N[C@@H](Cc1c[nH]c2cc(Cl)ccc12)C(=O)O; Phe(4-Ac) = CC(=O)c1ccc(C[C@H](N)C(=O)O)cc1; SP4 = not defined here; SP6 = not defined here; SP9 = not defined here; βAla = NCCC(=O)O

T1: HDMX-YFP fusion protein (p53-binding domain of human HDMX, residues 1-109, C-terminally fused to Yellow … (human, UniProt O15151 1-109))
T1 construct: range 1-109; Expressed in E. coli BL21(DE3) from pET22-HDMX-YFP-His; also called HMDX; HDM4; not shown: Yellow Fluorescent Protein (YFP); C-terminal His tag
T1 sequence (looked up): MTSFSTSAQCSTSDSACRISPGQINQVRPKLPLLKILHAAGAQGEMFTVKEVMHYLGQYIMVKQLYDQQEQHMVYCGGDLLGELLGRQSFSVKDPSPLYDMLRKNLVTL

B1: p53 macrocyclic peptidomimetic P5 (i/i+6(CO)-linked, distance-mismatched SP4-based linker; negative control) (peptide)
peptide: GTSFA[Phe(4-Ac)]YWNLLA
modifications: linker 6-C via SP4; reading uncertain; also: linker thiol capped with iodoacetamide
notes: also called SP4-based macrocycle P5
B2: p53 macrocyclic peptidomimetic P3 (i/i+6(CO)-linked, SP6-based linker) (peptide)
peptide: GTSFA[Phe(4-Ac)]YWNLLA
modifications: linker 6-C via SP6; reading uncertain; also: linker thiol capped with iodoacetamide
B3: P17 (peptide)
peptide: Ac-[pAcF]SFAEY[Trp(6-Cl)]ALLA
modifications: linker 1-C via SP9; reading uncertain; also: linker thiol capped with iodoacetamide
notes: also called Ac-(pAcF)SFAEY(6ClW)ALLA, SP9-linked macrocycle
B4: P19 (peptide)
peptide: Ac-[pAcF]SFAEY[Trp(6-Cl)]ALLA
modifications: linker 1-C via SP4; reading uncertain; also: linker thiol capped with iodoacetamide
notes: also called Ac-(pAcF)SFAEY(6ClW)ALLA, SP4-linked macrocycle
B5: p53 macrocyclic peptidomimetic P7 (i/i+10(CO)-linked, SP6-based linker) (peptide)
peptide: G[Phe(4-Ac)]SFAEYWNLLA
modifications: linker 2-C via SP6; reading uncertain; also: linker thiol capped with iodoacetamide
B6: P16 (peptide)
peptide: Ac-[mAcF]SFAEY[Trp(6-Cl)]ALLA
modifications: linker 1-C via SP8; also: linker thiol capped with iodoacetamide
notes: also called Ac-(mAcF)SFAEY(6ClW)ALLA, SP8-linked macrocycle
B7: P2 (peptide)
peptide: Ac-GTSFAYYWNLLA-NH2
notes: also called acyclic counterpart of P3 and P4
B8: P18 (peptide)
peptide: Ac-[mAcF]SFAEY[Trp(6-Cl)]ALLA
modifications: linker 1-C via SP9; reading uncertain; also: linker thiol capped with iodoacetamide
notes: also called Ac-(mAcF)SFAEY(6ClW)ALLA, SP9-linked macrocycle
B9: P11 (peptide)
peptide: Ac-[Phe(4-Ac)]SFAEY[Trp(6-Cl)]ALLA-NH2
SMILES: CC(=O)N[C@@H](Cc1ccc(C(C)=O)cc1)C(=O)N[C@@H](CO)C(=O)N[C@@H](Cc1ccccc1)C(=O)N[C@@H](C)C(=O)N[C@@H](CCC(=O)O)C(=O)N[C@@H](Cc1ccc(O)cc1)C(=O)N[C@@H](Cc1c[nH]c2cc(Cl)ccc12)C(=O)N[C@@H](C)C(=O)N[C@@H](CC(C)C)C(=O)N[C@@H](CC(C)C)C(=O)N[C@@H](C)C(N)=O
notes: also called Ac-(pAcF)SFAEY(6ClW)ALLA-NH2
B10: p53 macrocyclic peptidomimetic P8 (i/i+10(CO)-linked, SP8-based linker) (peptide)
peptide: G[Phe(4-Ac)]SFAEYWNLLA
modifications: bridge 2-C; not fully specified (bridges); also: linker thiol capped with iodoacetamide

How the values were obtained:
[1] = biological target: T1, HDMX-YFP fusion protein (p53-binding …); assay: SPR inhibition assay, competitor immobilised biotin-p53(15-29); the sentence does not say which homolog
Experimental: (§1) The surface plasmon resonance (SPR)-based inhibition assays were performed using a BIAcore T100 instrument. […] Running buffer and sample buffer contained 10 mM HEPES buffer, pH 7.4 with 150 mM NaCl, 3 mM EDTA and 0.05% v/v Tween 20. […] With increasing concentrations of the inhibitor, binding of HDM2 (or HDMX) to the surface is inhibited, leading to a decrease in biosensor response. HDM2/HDMX plus inhibitor samples were injected at a rate of 30 uL/min over a 2 minute interval by a 2 minute dissociation period and a 10-second regeneration step using 10 mM HCl. Specific binding curves for each concentration of inhibitor were obtained by subtracting the response in the reference surface from the response in the p53-coated surface.

[2] = biological target: T2, HDM2-YFP fusion protein (p53-binding domain of human HDM2, residues 1-109, C-terminally fused to Yellow … (human, UniProt Q00987 1-109)); assay: SPR inhibition assay: inhibitor added to soluble HDM2-YFP, binding to immobilized biotin-SGSG-p53(15-29) is inhibited
T2 construct: range 1-109; Expressed in E. coli BL21(DE3) from pET22-HDM2-YFP-His; also called HMD2; HDM2-YFP-His; not shown: Yellow Fluorescent Protein (YFP); C-terminal His tag
Experimental: as §1

[3] = biological target: T1, HDMX-YFP fusion protein (p53-binding …); assay: SPR inhibition assay: inhibitor added to soluble HDMX-YFP, binding to immobilized biotin-SGSG-p53(15-29) is inhibited
Experimental: as §1

[4] = biological target: T1, HDMX-YFP fusion protein (p53-binding …); assay: SPR inhibition assay, competitor immobilised biotin-p53(15-29)
Experimental: as §1

[5] = biological target: T2, HDM2-YFP fusion protein (p53-binding …); assay: fluorescence polarization, fluorescein-labeled compound (25-200 nM) titrated with HDM2 (10 nM to 2 µM)
Experimental: HDM2 binding studies. […] In the assay, 25-200 nM of the fluorescein-labeled compound and HDM2 concentrations varying from 10 nM to 2 μM were tested. The experiments were performed at room temperature in black 96-well plates with a final volume of 75 μL in PBS buffer with addition of 1% DMSO. Fluorescence was detected at excitation/emission of 470/520 nm and change in fluorescence polarization was plotted against the varying protein concentration.

T2 sequence (Q00987 1-109): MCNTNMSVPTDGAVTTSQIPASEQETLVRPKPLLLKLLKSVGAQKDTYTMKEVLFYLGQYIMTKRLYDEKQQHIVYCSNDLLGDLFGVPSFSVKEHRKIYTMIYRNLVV

Row | Binder | IC50 [2] [nM] | further results
1 | B1 | – | IC50 [1]: ~10000 nM
2 | B2 | 870 | IC50 [3]: 4100 nM
3 | B3 | 305 | –
4 | B4 | > 50000 | –
5 | B5 | – | IC50 [4]: 910 nM
6 | Ac-G[pAcF]SFAEYWNLLA (linker 2-C via SP8; also: linker thiol capped with iodoacetamide) [P12] | 145 | –
7 | B6 | 105 | –
8 | GTSFA[pAcF]YWNLLA (linker 6-C via SP8; also: linker thiol capped with iodoacetamide) [p53 macrocyclic peptidomimetic P4 (i/i+6(CO)-linked, SP8-based linker)] | 1500 | IC50 [3]: 3500 nM
9 | B7 | 1510 | IC50 [3]: 7500 nM
10 | B8 | 400 | –
11 | B9 | 30 | –
12 | Ac-[mAcF]SFAEYWNLLA (linker 1-C via SP8; also: linker thiol capped with iodoacetamide) [P14] | 255 | –
13 | Ac-[pAcF]SFAEYWNLLA (linker 1-C via SP8; also: linker thiol capped with iodoacetamide) [P13] | 135 | –
14 | B10 | – | IC50 [4]: 340 nM
15 | {FITC-βAla}-G[pAcF]SFAEYWNLLA (linker 2-C via SP8; also: linker thiol capped with iodoacetamide, also called fluorescein-conjugated P8) [FITC-β-Ala-P8 (fluorescein-labeled derivative of macrocycle P8)] | – | Kd [5]: 63 nM
